From publication PMC4176360, “Crystal structure of the catalytic core of Rad2: insights into the mechanism of substrate binding” (Nucleic Acids Research, 2014) come the findings set out here.

In series [1] the target is Sc-Rad2-ΔSC (complex I construct) (Saccharomyces cerevisiae, UniProt P07276 1-986, del112-731;del987-1031). Kind of series: X-ray crystallography; non-productive complex; DNA largely disordered, backbone contacts H2TH of one subunit; Crystallization at room temperature, protein:DNA 1:1.2, 10 mg/ml protein; protein in 20 mM HEPES pH 7.5, 150 mM KCl, 5 mM Ca acetate, 5% glycerol, 0.5 mM TCEP (complex I: 150 mM NaCl); point-mutant cleavage assays without a binding read-out not listed. The settings on record: protein: recombinant; tags: 6xHis-SUMO cleaved; two additional N-terminal residues left; chain copies: 2; duplex 12-15 bp with overhangs.

Series [2] concerns the target T1, Sc-Rad2-ΔSC (Saccharomyces cerevisiae, UniProt P07276 2-986, del112-731;del987-1031). Kind of series: X-ray crystallography, 2.1 Å; Ca2+ at active site; K+ at H2TH; Crystallization at room temperature, protein:DNA 1:1.2, 10 mg/ml protein; protein in 20 mM HEPES pH 7.5, 150 mM KCl, 5 mM Ca acetate, 5% glycerol, 0.5 mM TCEP (complex I: 150 mM NaCl); point-mutant cleavage assays without a binding read-out not listed. To be noted: protein: recombinant; tags: 6xHis-SUMO removed by SENP; N-terminal Gly2 after cleavage; chain copies: 2; 14 complementary bp with TT overhangs on all four ends; in crystal 15-mer duplex with one T-T mismatch, 1 nt overhangs at one end and 2 nt at the other.

Series [3] concerns the molecule itself. Kind of series: crystal structure; complex I: selenomethionine-labeled Rad2-ΔSC mixed with DNA at a 1:1.2 molar ratio, sitting-drop vapor diffusion, room temperature, reservoir 20% (v/v) ethylene glycol; space group P3(2)21, 2.75 Å.
Series [4] addresses T1, Sc-Rad2-ΔSC. The experiment in a line: X-ray crystallography, 2.7 Å; Ca2+ at active site; K+ at H2TH; Crystallization at room temperature, protein:DNA 1:1.2, 10 mg/ml protein; protein in 20 mM HEPES pH 7.5, 150 mM KCl, 5 mM Ca acetate, 5% glycerol, 0.5 mM TCEP (complex I: 150 mM NaCl); point-mutant cleavage assays without a binding read-out not listed. To be noted: protein: recombinant; tags: 6xHis-SUMO removed by SENP; N-terminal Gly2 after cleavage; chain copies: 2; 15 bp with 4 nt overhangs on all four ends.

The target in series [5] is T1, Sc-Rad2-ΔSC. Kind of series: X-ray crystallography, 2.4 Å; Ca2+ at active site; K+ at H2TH; Crystallization at room temperature, protein:DNA 1:1.2, 10 mg/ml protein; protein in 20 mM HEPES pH 7.5, 150 mM KCl, 5 mM Ca acetate, 5% glycerol, 0.5 mM TCEP (complex I: 150 mM NaCl); point-mutant cleavage assays without a binding read-out not listed. To be noted: protein: recombinant; tags: 6xHis-SUMO removed by SENP; N-terminal Gly2 after cleavage; chain copies: 2; 15 bp with 1 nt overhangs on all four ends.

B1: complex I DNA (dsDNA)
DNA 1: AAAGCTCTGACTCAG
DNA 2: CTGAGTCAGAGCAAA
Take B1: the binding result in series [1] is on record as “binds”.

B2: complex II DNA (dsDNA)
DNA 1: TTAGGTGGACGGATCATT
DNA 2: TTTGATCCGTCCACCTTT
Regarding B2, the binding result with Sc-Rad2-ΔSC [2] is reported as “binds”.

B3: Sc-Rad2-ΔSC (Δ112-731, Δ987-1031) (enzyme, S. cerevisiae, UniProt P07276 1-986, looked up)
chain: MGVHSFWDIAGPTARPVRLESLEDKRMAVDASIWIYQFLKAVRDQEGNAVKNSHITGFFRRICKLLYFGIRPVFVFDGGVPVLKRETIRQRKERRQGKRESAKSTARKLLANTTLSTSAERNVAENAFVEDELFEQQMKDKRDSDEVTMDMIKEVQELLSRFGIPYITAPMEAEAQCAELLQLNLVDGIITDDSDVFLFGGTKIYKNMFHEKNYVEFYDAESILKLLGLDRKNMIELAQLLGSDYTNGLKGMGPVSSIEVIAEFGNLKNFKDWYNNGQFDKRKQETENKFEKDLRKKLVNNEIILDDDFPSVMVYDAYMRPEVDHDTTPFVWGVPDLDMLRSFMKTQLGWPHEKSDEILIPLIRDV
modifications: selenomethionine-labeled (complex I)
notes: Rad2, S. cerevisiae, spacer residues 112-731 removed and C-terminus (residues 987-1031) removed; The dimer is seen in crystal complex I together with disordered DNA; The same construct, not selenomethionine-labeled, stands in complexes II-IV; also called Sc-Rad-ΔSC; catalytic core of Rad2; source: E. coli BL21 (DE3) Rosseta, purified (HisTrap, SENP cleavage, second HisTrap, Superdex 200); …
B3: the binding result in series [3] is reported as “binds”.

B4: complex IV DNA (dsDNA)
DNA 1: TTTTGCTCCCTTGTCTCAGTTTT
DNA 2: TTTTCTGAGACAAGGGAGCTTTT
On to B4, for which the binding result in the series with Sc-Rad2-ΔSC [4] is on record as “binds”.

B5: complex III DNA (dsDNA)
DNA 1: TGCTCCCTTGTCTCAGT
DNA 2: TCTGAGACAAGGGAGCT
Take B5: the binding result with Sc-Rad2-ΔSC [5] was “binds”.
